How the values were obtained:
ubiquitin (wild type) = ubiquitin (wild type) (UniProt P0CG48); assay: NMR titration; 1H-15N-HSQC titrations of ubiquitin with UBXD1, UBXD1-eUBX R305A, PUB or the UBX extension; 50 mM sodium potassium phosphate pH 7.5, 25 °C
[1] = biological target: UBXD1 UBX extension (269–330), for fluorescence anisotropy (human) (UniProt Q9BZV1); assay: fluorescence polarisation; fluorescence anisotropy; Atto594-labeled UBXD1 proteins, p97 constructs titrated; 50 mM NaKPi pH 7.5, 25 °C; all fitted with stoichiometry n = 1

Substance: UBXD1-eUBX R305A (from UniProt Q9BZV1 1-441) (domain or fragment)
- Kd (ubiquitin (wild type)): 155 µM

Substance: p97-wt (1–806) (from UniProt P55072 1-806) (enzyme)
- Kd [1]: 191 µM

Source: PMC10241913
